Values belong to the binder of their own block, whether it stands above or below them.
Tests used:
[1] = target: T1, Human Serum Albumin (HSA) (human, UniProt P02768 25-609); experiment: yeast display selection
[2] = target: T1, Human Serum Albumin (HSA); experiment: sandwich ELISA
Procedure: (§1) The binding characteristic of the multispecific and bispecific binders from Examples 6 and 7 were assessed as follows. […] Aliquots of cleared lysate of wild-type Fn10 (lane1), clone 87 (multispecific) (lane2), clone 89 (bispecific) (lane3) and PBS were added to the wells and incubated for 1 hour at room-temperature. These were run at different concentrations 1, 2 and 3. After washing 5 times with PBS/0.05% Tween, the wells were incubated with 1 µg/ml HSA in PBS. Detection was performed with HRP conjugated chicken anti-human HSA antibody (Abcam). The ELISA was developed with a […] substrate and the OD-values measured at 450 nm.

[3] = target: T1, Human Serum Albumin (HSA); experiment: yeast display selection and ELISA screen of the HSA library
In short: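 Single clones from the HSA library were expressed in E. coli overnight at 37 °C in OvernightExpress medium in 96 deep-well plates, freeze-thawed, lysed with lysozyme/EDTA then DNaseI, and cleared. Wells coated overnight at 4 °C with 1.0 µg/mL HSA and blocked with casein received 50 µL lysate for 1 hour, then were washed. Binding was detected with HRP anti-His-tag antibody and TMB substrate, read as optical density at 450 nm per clone extract.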

[4] = target: T1, Human Serum Albumin (HSA); experiment: sandwich ELISA: VEGFR2-Fc immobilized, cleared lysate, then HSA, anti-HSA-HRP detection
Procedure: as §1

T1 sequence (P02768 25-609 limits assumed): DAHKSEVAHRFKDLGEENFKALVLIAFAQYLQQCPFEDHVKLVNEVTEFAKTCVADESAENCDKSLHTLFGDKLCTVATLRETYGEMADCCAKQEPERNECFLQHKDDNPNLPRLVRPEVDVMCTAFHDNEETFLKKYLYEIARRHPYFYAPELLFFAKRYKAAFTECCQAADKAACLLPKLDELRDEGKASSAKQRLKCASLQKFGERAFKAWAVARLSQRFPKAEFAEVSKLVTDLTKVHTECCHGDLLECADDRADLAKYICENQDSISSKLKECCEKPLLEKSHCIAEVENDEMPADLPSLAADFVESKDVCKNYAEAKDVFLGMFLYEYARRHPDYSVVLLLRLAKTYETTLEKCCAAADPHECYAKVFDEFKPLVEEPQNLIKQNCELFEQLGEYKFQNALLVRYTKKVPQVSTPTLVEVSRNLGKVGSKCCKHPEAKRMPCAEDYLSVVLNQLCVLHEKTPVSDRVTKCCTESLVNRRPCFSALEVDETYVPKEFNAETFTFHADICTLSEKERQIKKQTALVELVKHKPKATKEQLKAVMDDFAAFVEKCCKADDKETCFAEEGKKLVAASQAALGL

B1: SEQ ID NO 36 (designed binder)
chain: VSDVPRDLEVVAATPTSLLISWDAPAVTVRYYRITYGNIVAANALPEFTVPGSKSTATITGLMSGIDYTITVYAVTGRGDSPASSKPISINYSTEY
binding result [1]: binds

B2: clone 87 (multispecific Fn3-based binding molecule; VEGFR2 top side binder fused to bottom side sequence 8 from FIG. 7 with GS linker) (designed binder)
chain: MGVSDVPRDLEVVAATPTSLLISWRHPHFPTRYYRITYGETGGNSPVQEFTVPLQPPLATISGLKPGVDYTITVYAVTKERNGRELFTPISINYRTGGGGSGGGGSVSDVPRDLEVVAATPTSLLISWDAPAVTVRYYRITYGRTDAKSTRKEFTVPGSKSTATIGELKRGRDYTITVYAVTGRGDSPASSKPISINYRPEKENLYFQGHHHHHH
notes: ELISA used cleared lysate, Biacore soluble protein; also called Fibronectin clone 87 (multispecific)
binding result [2]: binds

B3: SEQ ID NO 37 (designed binder)
chain: VSDVPRDLEVVAATPTSLLISWDAPAVTVRYYRITYGKLSQPTKRREFTVPGSKSTATISRLKPGLDYTITVYAVTGRGDSPASSKPISINYHYEL
binding result [1]: binds

B4: SEQ ID NO 39 (designed binder)
chain: VSDVPRDLEVVAATPTSLLISWDAPAVTVRYYRITYGKKHKHTTVREFTVPGSKSTATIAGKSLGGDYTITVYAVTGRGDSPASSKPISINYTSET
binding result [1]: binds

B5: SEQ ID NO 41 (designed binder)
chain: VSNIPKDLEVVAATPTSLLISWDAPAVTVRYYRITYGQTMNGQSNVEFTVPGSKSTATISPSKLGLDYTITVYAVTGRGDSPASSKPISINYLSET
binding result [1]: binds

The remaining lines, values ahead:

binding result [1]: binds
B6: SEQ ID NO 35 (designed binder)
chain: VSDVPRDLEVVAATPTSLLISWDAPAVTVRYYRITYGKNGRHNLDHEFTVPGSKSTATISGLKRGVDYTITVYAVTGRGDSPASSKPISINYHNEN

binding result [3]: binds
B7: SEQ ID NO 8 (designed binder)
chain: VSDVPRDLEVVAATPTSLLISWDAPAVTVRYYRITYGRTDAKSTRKEFTVPGSKSTATIGELKRGRDYTITVYAVTGRGDSPASSKPISINYRPEK
notes: used to build clone 87 and clone 89

binding result [1]: binds
B8: SEQ ID NO 40 (designed binder)
chain: VSDVPRDLEVVAATPTSLLISWDAPAVTVRYYRITYGRPGHNSKVHEFTVPGSKSTATIDGAKKGHDYTITVYAVTGRGDSPASSKPISINYIMEH

binding result [4]: binds
B9: clone 89 (bispecific Fn3-based binding molecule; VEGFR2/Bottom side SEQ ID NO: 8 merged molecule) (designed binder)
chain: MGVSDVPRDLEVVAATPTSLLISWRHPHFPTRYYRITYGRTDAKSTRKEFTVPLQPPLATIGELKRGRDYTITVYAVTKERNGRELFTPISINYRPEKENLYFQGHHHHHH
notes: the entry ends in ENLYFQG-HHHHHH; also called VEGFR2-HAS; single bispecific fibronectin molecule

binding result [1]: binds
B10: SEQ ID NO 38 (designed binder)
chain: VSDVPRDLEVVAATPTSLLISWDAPAVTVRYYRITYGKSSHNSAAKEFTVPGSKSTATITRLKSGTDYTITVYAVTGRGDSPASSKPISINYKPEY
